Test results as given in publication PMC5959942, “Targeting G protein-coupled receptor signaling at the G protein level with a selective nanobody inhibitor” (Nature Communications, 2018).

Experiments:
[1] = target: T1, bovine Gβ1γ1 dimer (β1γ1 subunits of the visual G protein Gt, transducin) (bovine, UniProt P62871;P02698)
[2] = target: T1, bovine Gβ1γ1 dimer (β1γ1 subunits of …); assay: SPR; same set-up as a5; affinity based (equilibrium) analysis; conditions: both partners purified
[3] = target: T1, bovine Gβ1γ1 dimer (β1γ1 subunits of …); assay: SPR; Biacore T100, 25 °C; Nb5 amine-coupled on CM5 (400-500 RU); Gβ1γ1 0.6-312 nM in 10 mM HEPES pH 7.5, 150 mM NaCl, 1 mM TCEP, 0.1% Tween-20; single-cycle kinetics, 1:1 Langmuir fit; conditions: both partners purified
[4] = target: T2, mouse Gβ1 subtype from brain (mouse (endogenous in C57BL/6J brain), UniProt P62874); assay: affinity purification with mass spectrometry; cholate-solubilized, DEAE-purified C57BL/6J mouse brain extract with a two molar excess of His-tagged Nb5, Ni2+-NTA then Talon resin; Gβ gel band digested in gel, LC-MS/MS; conditions: one partner purified
T2 construct: G protein beta subunit subtype 1, mouse brain; Extracted as Gβγ; the Gγ partner is not identified; source: endogenous, C57BL/6J mouse brain membranes, cholate-solubilized and partially purified (DEAE Sepharose)

[5] = target: T3, mouse Gβ2 subtype from brain (mouse (endogenous in C57BL/6J brain), UniProt P62880); assay: as above; conditions: one partner purified
T3 construct: G protein beta subunit subtype 2, mouse brain; Extracted as Gβγ; the Gγ partner is not identified; source: endogenous, C57BL/6J mouse brain membranes, cholate-solubilized and partially purified (DEAE Sepharose)

[6] = target: T4, mouse Gβ3 subtype from brain (mouse (endogenous in C57BL/6J brain), UniProt Q61011); assay: as above; conditions: one partner purified
T4 construct: G protein beta subunit subtype 3, mouse brain; Extracted as Gβγ; the Gγ partner is not identified; source: endogenous, C57BL/6J mouse brain membranes, cholate-solubilized and partially purified (DEAE Sepharose)

[7] = target: T5, mouse Gβ4 subtype from brain (mouse (endogenous in C57BL/6J brain), UniProt P29387); assay: as above; conditions: one partner purified
T5 construct: G protein beta subunit subtype 4, mouse brain; Extracted as Gβγ; the Gγ partner is not identified; source: endogenous, C57BL/6J mouse brain membranes, cholate-solubilized and partially purified (DEAE Sepharose)

[8] = target: T6, Venus-Gβ1γ2 (Venus 156-239-Gβ1 + Venus 1-155-Gγ2) (UniProt P62873;P59768); assay: FRET or BRET; BRET between Venus-Gβγ and masGRK3ct-Nluc-HA in living HEK293T/17 cells, room temperature; GαoA, Nb5-Flag or Nb17-Flag co-transfected as competitor (plasmid ratio GαoA:Gβ:Gγ2:masGRK3ct:nanobody 2:1:1:1:12); conditions: partners not purified
T6 construct: G protein beta subunit subtype 1; G protein gamma subunit 2; also called Venus-Gβγ; source: HEK293T/17, transfected, in living cells

[9] = target: T7, Venus-Gβ2γ2 (Venus 156-239-Gβ2 + Venus 1-155-Gγ2) (UniProt P62879;P59768); assay: as above; conditions: partners not purified
T7 construct: G protein beta subunit subtype 2, GenBank AF501883; G protein gamma subunit 2; also called Venus-Gβγ; Gβ2 + Gγ2 pair; source: HEK293T/17, transfected, in living cells; not shown: Venus 156-239 (with GGSGGG linker), N-terminal, kept

[10] = target: T8, Venus-Gβ3γ2 (Venus 156-239-Gβ3 + Venus 1-155-Gγ2) (UniProt P16520;P59768); assay: as above; conditions: partners not purified
T8 construct: G protein beta subunit subtype 3, GenBank M31328; G protein gamma subunit 2; also called Venus-Gβγ; Gβ3 + Gγ2 pair; source: HEK293T/17, transfected, in living cells; not shown: Venus 156-239 (with GGSGGG linker), N-terminal, kept

[11] = target: T9, Venus-Gβ4γ2 (Venus 156-239-Gβ4 + Venus 1-155-Gγ2) (UniProt Q9HAV0;P59768); assay: as above; conditions: partners not purified
T9 construct: G protein beta subunit subtype 4, GenBank AF300648; G protein gamma subunit 2; also called Venus-Gβγ; Gβ4 + Gγ2 pair; source: HEK293T/17, transfected, in living cells; not shown: Venus 156-239 (with GGSGGG linker), N-terminal, kept

B1: Nb6 (VHH)
VHH: QVQLVESGGGLVQAGGSLRLSCAASGSIFSINAMNWYRQAPGKRRELVAAITNGGSTNYADSVKGRFTISRDNAKNTVYLQMNSLKPEDTAVYYCNVGRSRGYWGQGTQVTVSS
[1]
  binding result: binds

B2: Nb7 (VHH)
VHH: QVQLVESGGGLVQAGESLRLSCAASGNIFSINATNWYRQAPGKQRELVAGITTRGSTNYADSVKGRFTISRDNAKNTVYLQMNSLKPEDTAVYYCNVGRSRGYWGQGTQVTVSS
[1]
  binding result: binds

B3: Nb5 (llama-derived nanobody against the Gβ1γ1 dimer), C-terminal His-tag (VHH)
VHH: QVQLVESGGGLVQAGGSLRLSCAASGSIFSINAMGWYRQAPGKQRELVAAITRGGRTNYADSVKGRFTLSRDNAKNTVYLQMNSLKPEDTAVYYCNVGRSRGYWGQGTQVTVSS
notes: Selected from a library in the phage display vector pMESy4; not shown: His6, C-terminal, kept
[2]
  Kd: 53 nM
[3]
  Kd: 43 nM
  koff: 0.019 s⁻¹
  kon: 440000 M⁻¹ s⁻¹
[4]
  binding result: binds
[5]
  binding result: binds
[6]
  binding result: binds
[7]
  binding result: binds

B4: Nb5-Flag (Nb5 with the 6 × His-tag replaced by the FLAG-tag) (VHH)
VHH: QVQLVESGGGLVQAGGSLRLSCAASGSIFSINAMGWYRQAPGKQRELVAAITRGGRTNYADSVKGRFTLSRDNAKNTVYLQMNSLKPEDTAVYYCNVGRSRGYWGQGTQVTVSS
notes: source: HEK293T/17, transfected, in living cells; CHO-APJ cells, transiently transfected (pcDNA3.1(+)); not shown: FLAG, C-terminal, kept
[8]
  binding result: binds
[9]
  binding result: binds
[10]
  binding result: binds
[11]
  binding result: binds
